Test results published in article PMC5394233, “Structural and functional analysis of the human POT1-TPP1 telomeric complex” (Nature Communications, 2017).

Tests used:
[1] = target: POT1C;TPP1(PBD) (Homo sapiens;Homo sapiens, UniProt Q9NUX5;Q96AP0 330-634;169-251, |); experiment: fluorescence polarization; up to 5 uM protein; FP: 20 mM Hepes pH 7.5, 100 mM KCl, 2 mM MgCl2, 1 mM EDTA, 2 mM DTT, 1 mg/ml BSA, 5% glycerol, 75 nM polyT50 competitor, 2.5 nM probe, room temperature 30 min; conditions: protein: recombinant;recombinant; tags: N-terminal His6-pMocr, TEV-cleaved;N-terminal His6, TEV-cleaved; copies: 1;1; label: 5' 6-FAM; single strand
Sequence of POT1C;TPP1(PBD) (Q96AP0 169-251, one chain of several): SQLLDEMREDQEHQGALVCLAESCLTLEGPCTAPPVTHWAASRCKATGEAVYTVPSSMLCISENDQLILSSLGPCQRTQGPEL

[2] = target: flPOT1 R477T;TPP1(87) (Homo sapiens;Homo sapiens, UniProt Q9NUX5;Q96AP0 1-634;1-458, R477T|); experiment: fluorescence polarization; wild-type affinity stated; FP: 20 mM Hepes pH 7.5, 100 mM KCl, 2 mM MgCl2, 1 mM EDTA, 2 mM DTT, 1 mg/ml BSA, 5% glycerol, 75 nM polyT50 competitor, 2.5 nM probe, room temperature 30 min; conditions: protein: recombinant;recombinant, tags: N-terminal His6-pMocr, TEV-cleaved;N-terminal His6-MBP, copies: 1;1, label: 5' 6-FAM, single strand
Sequence of flPOT1 R477T;TPP1(87) (Q96AP0 whole entry, stated change not applied, one chain of several): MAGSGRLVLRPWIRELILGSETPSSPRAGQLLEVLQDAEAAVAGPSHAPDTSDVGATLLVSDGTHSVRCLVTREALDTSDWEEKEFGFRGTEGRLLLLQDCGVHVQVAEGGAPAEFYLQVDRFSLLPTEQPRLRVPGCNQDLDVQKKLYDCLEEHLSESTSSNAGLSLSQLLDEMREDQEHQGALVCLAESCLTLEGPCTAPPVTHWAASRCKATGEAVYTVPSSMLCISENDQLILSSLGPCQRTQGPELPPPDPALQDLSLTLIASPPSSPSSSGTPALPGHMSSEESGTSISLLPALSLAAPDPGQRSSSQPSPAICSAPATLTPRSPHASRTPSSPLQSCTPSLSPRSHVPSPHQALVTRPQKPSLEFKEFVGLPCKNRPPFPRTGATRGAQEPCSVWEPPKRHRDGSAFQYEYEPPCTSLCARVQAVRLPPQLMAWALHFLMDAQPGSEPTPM

[3] = target: flPOT1 A532P;TPP1(87) (Homo sapiens;Homo sapiens, UniProt Q9NUX5;Q96AP0 1-634;1-458, A532P|); experiment: as above; conditions: protein: recombinant;recombinant, tags: N-terminal His6-pMocr, TEV-cleaved;N-terminal His6-MBP, copies: 1;1, label: 5' 6-FAM, single strand
Sequence of flPOT1 A532P;TPP1(87) (Q96AP0 whole entry, stated change not applied, one chain of several): as above

[4] = target: flPOT1 L343F;TPP1(87) (Homo sapiens;Homo sapiens, UniProt Q9NUX5;Q96AP0 1-634;1-458, L343F|); experiment: as above; conditions: protein: recombinant;recombinant, tags: N-terminal His6-pMocr, TEV-cleaved;N-terminal His6-MBP, copies: 1;1, label: 5' 6-FAM, single strand
Sequence of flPOT1 L343F;TPP1(87) (Q96AP0 whole entry, stated change not applied, one chain of several): as above

[5] = target: T1, flPOT1 P446Q (Homo sapiens, UniProt Q9NUX5 1-634, P446Q); experiment: fluorescence polarization; FP: 20 mM Hepes pH 7.5, 100 mM KCl, 2 mM MgCl2, 1 mM EDTA, 2 mM DTT, 1 mg/ml BSA, 5% glycerol, 75 nM polyT50 competitor, 2.5 nM probe, room temperature 30 min; conditions: protein: recombinant; tags: N-terminal His6-pMocr, TEV-cleaved; label: 5' 6-FAM; single strand
T1 sequence: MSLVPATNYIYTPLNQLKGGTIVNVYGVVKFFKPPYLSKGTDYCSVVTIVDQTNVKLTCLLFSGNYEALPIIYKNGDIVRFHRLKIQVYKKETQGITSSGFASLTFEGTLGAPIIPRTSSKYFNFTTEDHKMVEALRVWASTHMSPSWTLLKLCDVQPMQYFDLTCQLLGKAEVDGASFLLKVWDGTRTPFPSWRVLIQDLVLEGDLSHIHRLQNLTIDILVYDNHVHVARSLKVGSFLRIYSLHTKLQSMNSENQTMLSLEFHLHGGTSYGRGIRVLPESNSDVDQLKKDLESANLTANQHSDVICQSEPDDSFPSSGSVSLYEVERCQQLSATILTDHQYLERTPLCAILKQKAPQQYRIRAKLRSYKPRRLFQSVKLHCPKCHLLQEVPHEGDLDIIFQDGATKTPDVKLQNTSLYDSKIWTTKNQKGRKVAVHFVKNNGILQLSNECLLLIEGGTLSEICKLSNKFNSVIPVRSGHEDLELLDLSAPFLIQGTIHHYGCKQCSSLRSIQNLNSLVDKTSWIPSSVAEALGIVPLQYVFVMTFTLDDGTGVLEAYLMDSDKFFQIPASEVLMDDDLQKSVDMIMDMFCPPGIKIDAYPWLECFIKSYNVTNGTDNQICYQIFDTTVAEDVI

[6] = target: flPOT1 P475L;TPP1(87) (Homo sapiens;Homo sapiens, UniProt Q9NUX5;Q96AP0 1-634;1-458, P475L|); experiment: as above; conditions: protein: recombinant;recombinant, tags: N-terminal His6-pMocr, TEV-cleaved;N-terminal His6-MBP, copies: 1;1, label: 5' 6-FAM, single strand
Sequence of flPOT1 P475L;TPP1(87) (Q9NUX5 whole entry P475L, chain 1 of 2): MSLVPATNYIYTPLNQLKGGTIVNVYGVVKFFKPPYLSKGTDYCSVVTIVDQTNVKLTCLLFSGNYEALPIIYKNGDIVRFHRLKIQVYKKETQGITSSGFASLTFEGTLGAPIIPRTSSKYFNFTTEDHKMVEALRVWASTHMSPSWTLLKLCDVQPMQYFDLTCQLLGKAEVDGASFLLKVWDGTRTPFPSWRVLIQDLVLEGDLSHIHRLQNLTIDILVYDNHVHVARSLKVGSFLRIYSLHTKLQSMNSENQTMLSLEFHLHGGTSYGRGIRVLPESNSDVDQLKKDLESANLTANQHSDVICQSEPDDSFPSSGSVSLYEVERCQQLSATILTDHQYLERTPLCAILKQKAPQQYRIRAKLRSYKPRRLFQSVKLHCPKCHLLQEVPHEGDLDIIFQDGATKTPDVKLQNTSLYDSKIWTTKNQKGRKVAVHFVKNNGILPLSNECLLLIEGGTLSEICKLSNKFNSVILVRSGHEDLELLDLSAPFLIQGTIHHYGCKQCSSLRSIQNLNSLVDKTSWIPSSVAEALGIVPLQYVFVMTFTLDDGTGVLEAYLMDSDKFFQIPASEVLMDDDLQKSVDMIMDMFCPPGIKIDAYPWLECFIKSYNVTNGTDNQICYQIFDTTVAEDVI
Sequence of flPOT1 P475L;TPP1(87) (Q96AP0 whole entry, chain 2 of 2): as the sequence (Q96AP0 whole entry, stated change not applied, one chain of several) above

[7] = target: T2, POT1C (Homo sapiens, UniProt Q9NUX5 330-634); experiment: as above; conditions: protein: recombinant; tags: N-terminal His6-pMocr, TEV-cleaved; label: 5' 6-FAM; single strand
T2 sequence: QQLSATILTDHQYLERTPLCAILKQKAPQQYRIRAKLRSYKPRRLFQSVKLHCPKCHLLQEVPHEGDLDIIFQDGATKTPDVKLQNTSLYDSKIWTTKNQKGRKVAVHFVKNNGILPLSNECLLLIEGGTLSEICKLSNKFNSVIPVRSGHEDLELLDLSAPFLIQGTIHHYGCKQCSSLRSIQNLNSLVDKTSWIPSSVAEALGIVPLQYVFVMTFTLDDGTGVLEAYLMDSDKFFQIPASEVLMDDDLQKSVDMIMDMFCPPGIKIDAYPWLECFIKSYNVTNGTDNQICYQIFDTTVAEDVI

[8] = target: flPOT1 WT;TPP1(87) (Homo sapiens;Homo sapiens, UniProt Q9NUX5;Q96AP0 1-634;1-458, |); experiment: as above; conditions: protein: recombinant;recombinant, tags: N-terminal His6-pMocr, TEV-cleaved;N-terminal His6-MBP, copies: 1;1, label: 5' 6-FAM, single strand
Sequence of flPOT1 WT;TPP1(87) (Q9NUX5 whole entry, chain 1 of 2): as the sequence (Q9NUX5 whole entry P475L, chain 1 of 2) above, with L475P counted along it
Sequence of flPOT1 WT;TPP1(87) (Q96AP0 whole entry, chain 2 of 2): as the sequence (Q96AP0 whole entry, stated change not applied, one chain of several) above

TTAGGGTTAGGGTTAGGG (ssDNA) [telomeric 18mer (TTAGGG)3]
binding result [1]: no binding | binding result [2]: binds | binding result [3]: binds | binding result [4]: binds | Kd [5]: ~20 nM | Kd [6]: 10.7 ± 1.4 nM | binding result [7]: no binding | Kd [8]: ~5.8 nM
